The Kd is the concentration at which binding is half-saturated.

Kd and binding signal data for 2 compounds are collected here from publication PMC11342271, “A high-throughput screening identifies MCM chromatin loading inhibitors targeting cells with increased replication origins” (iScience, 2024).

Data set [1] concerns the target T1, recombinant Xenopus laevis CDC6 (rCDC6) (Xenopus laevis, UniProt P79946).
T1 construct: gene cdc6.S; full-length; GST fusion from pGEX-6P-1 in E. coli Rosetta (DE3); GST cleaved with HRV 3C protease; Resource S and Superdex 200 purified
T1 sequence (P79946 1-554): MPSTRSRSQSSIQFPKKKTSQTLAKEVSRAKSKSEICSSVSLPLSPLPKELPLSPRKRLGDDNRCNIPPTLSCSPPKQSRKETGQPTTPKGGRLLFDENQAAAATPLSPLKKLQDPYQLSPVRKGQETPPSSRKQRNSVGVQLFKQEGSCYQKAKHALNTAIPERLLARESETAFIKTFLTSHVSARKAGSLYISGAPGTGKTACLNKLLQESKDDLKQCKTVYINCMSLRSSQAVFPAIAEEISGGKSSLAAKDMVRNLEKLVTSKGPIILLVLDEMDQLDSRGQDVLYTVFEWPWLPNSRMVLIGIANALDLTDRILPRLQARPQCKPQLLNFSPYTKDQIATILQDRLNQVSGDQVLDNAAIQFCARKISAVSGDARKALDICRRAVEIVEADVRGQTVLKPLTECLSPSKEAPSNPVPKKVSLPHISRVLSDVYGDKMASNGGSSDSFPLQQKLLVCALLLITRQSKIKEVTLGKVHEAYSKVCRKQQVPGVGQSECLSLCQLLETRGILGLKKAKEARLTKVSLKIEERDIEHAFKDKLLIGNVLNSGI
Kind of data set: isothermal titration calorimetry, one-site fit. Format: binding. As to conditions: 25 °C; PBS, 10% glycerol, 1 mM MgCl2, 1 mM DTT, 1% DMSO; CDC6 74 μM (75 μM in methods) titrated with 1 mM compound.

Data set [2] relates to MCM2-7 (detected via MCM7) (Xenopus laevis). Briefly: ELISA (MCM7) on immobilized DNA. As to conditions: 5' biotin (BtnTg), Interphase Xenopus laevis egg extract (HSS; 2-fold diluted in ELISA), 30 min, room temperature (ELISA), wash buffer, salt and pH not given in the material. (ELISA stands for enzyme-linked immunosorbent assay.)

Turning to `O=C1C(SCCO)=C(SCCO)C(=O)c2ccccc21` [NSC-95397, 2,3-bis(2-hydroxyethylsulfanyl) naphthalene-1,4-dione], the Kd in data set [1] was determined as 323 ± 269 nM.

For bDNA (1.8 kb biotinylated DNA), the binding signal in data set [2] (+ 187 uM NSC-95397 (reduction at least 40%)), in data set [2] (+ 187 uM aminacrine (DNA intercalator; reduction at least 40%)) and in data set [2] (+ 187 uM ethacridine (DNA intercalator; reduction at least 40%)) was < 60 % of DMSO each time.
